Measurements from IntAct's records for PubMed 29892012.

B1: BRCA1-A complex subunit RAP80 (Homo sapiens), Q96RL1 (parent)
chain: MPRRKKKVKEVSESRNLEKKDVETTSSVSVKRKRRLEDAFIVISDSDGEEPKEENGLQKTKTKQSNRAKCLAKRKIAQMTEEEQFALALKMSEQEAREVNSQEEEEEELLRKAIAESLNSCRPSDASATRSRPLATGPSSQSHQEKTTDSGLTEGIWQLVPPSLFKGSHISQGNEAEEREEPWDHTEKTEEEPVSGSSGSWDQSSQPVFENVNVKSFDRCTGHSAEHTQCGKPQESTGRGSAFLKAVQGSGDTSRHCLPTLADAKGLQDTGGTVNYFWGIPFCPDGVDPNQYTKVILCQLEVYQKSLKMAQRQLLNKKGFGEPVLPRPPSLIQNECGQGEQASEKNECISEDMGDEDKEERQESRASDWHSKTKDFQESSIKSLKEKLLLEEEPTTSHGQSSQGIVEETSEEGNSVPASQSVAALTSKRSLVLMPESSAEEITVCPETQLSSSETFDLEREVSPGSRDILDGVRIIMADKEVGNKEDAEKEVAISTFSSSNQVSCPLCDQCFPPTKIERHAMYCNGLMEEDTVLTRRQKEAKTKSDSGTAAQTSLDIDKNEKCYLCKSLVPFREYQCHVDSCLQLAKADQGDGPEGSGRACSTVEGKWQQRLKNPKEKGHSEGRLLSFLEQSEHKTSDADIKSSETGAFRVPSPGMEEAGCSREMQSSFTRRDLNESPVKSFVSISEATDCLVDFKKQVTVQPGSRTRTKAGRGRRRKF
partner: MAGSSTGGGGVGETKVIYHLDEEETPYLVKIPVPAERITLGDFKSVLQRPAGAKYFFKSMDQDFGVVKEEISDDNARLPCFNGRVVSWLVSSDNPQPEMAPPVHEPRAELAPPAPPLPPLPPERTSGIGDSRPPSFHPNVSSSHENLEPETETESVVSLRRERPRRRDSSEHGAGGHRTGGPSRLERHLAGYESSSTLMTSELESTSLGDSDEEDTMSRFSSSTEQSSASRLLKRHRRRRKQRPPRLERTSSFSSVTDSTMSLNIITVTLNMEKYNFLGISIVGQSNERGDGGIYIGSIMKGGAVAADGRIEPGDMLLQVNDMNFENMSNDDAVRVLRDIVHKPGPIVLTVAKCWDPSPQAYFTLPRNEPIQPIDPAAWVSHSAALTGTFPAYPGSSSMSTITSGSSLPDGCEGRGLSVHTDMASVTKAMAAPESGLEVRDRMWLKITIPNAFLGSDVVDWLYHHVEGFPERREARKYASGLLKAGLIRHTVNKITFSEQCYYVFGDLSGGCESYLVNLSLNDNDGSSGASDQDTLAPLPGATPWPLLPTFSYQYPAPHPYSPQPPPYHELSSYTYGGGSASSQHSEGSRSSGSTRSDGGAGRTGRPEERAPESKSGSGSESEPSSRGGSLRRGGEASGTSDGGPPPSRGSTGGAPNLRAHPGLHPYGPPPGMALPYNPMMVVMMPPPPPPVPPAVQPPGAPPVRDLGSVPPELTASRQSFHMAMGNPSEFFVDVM
B2: Coiled-coil alpha-helical rod protein 1 (Homo sapiens), Q8TD31 (parent)
chain: MFPPSGSTGLIPPSHFQARPLSTLPRMAPTWLSDIPLVQPPGHQDVSERRLDTQRPQVTMWERDVSSDRQEPGRRGRSWGLEGSQALSQQAEVIVRQLQELRRLEEEVRLLRETSLQQKMRLEAQAMELEALARAEKAGRAEAEGLRAALAGAEVVRKNLEEGSQRELEEVQRLHQEQLSSLTQAHEEALSSLTSKAEGLEKSLSSLETRRAGEAKELAEAQREAELLRKQLSKTQEDLEAQVTLVENLRKYVGEQVPSEVHSQTWELERQKLLETMQHLQEDRDSLHATAELLQVRVQSLTHILALQEEELTRKVQPSDSLEPEFTRKCQSLLNRWREKVFALMVQLKAQELEHSDSVKQLKGQVASLQEKVTSQSQEQAILQRSLQDKAAEVEVERMGAKGLQLELSRAQEARRRWQQQTASAEEQLRLVVNAVSSSQIWLETTMAKVEGAAAQLPSLNNRLSYAVRKVHTIRGLIARKLALAQLRQESCPLPPPVTDVSLELQQLREERNRLDAELQLSARLIQQEVGRAREQGEAERQQLSKVAQQLEQELQQTQESLASLGLQLEVARQGQQESTEEAASLRQELTQQQELYGQALQEKVAEVETRLREQLSDTERRLNEARREHAKAVVSLRQIQRRAAQEKERSQELRRLQEEARKEEGQRLARRLQELERDKNLMLATLQQEGLLSRYKQQRLLTVLPSLLDKKKSVVSSPRPPECSASAPVAAAVPTRESIKGSLSVLLDDLQDLSEAISKEEAVCQGDNLDRCSSSNPQMSS
partner: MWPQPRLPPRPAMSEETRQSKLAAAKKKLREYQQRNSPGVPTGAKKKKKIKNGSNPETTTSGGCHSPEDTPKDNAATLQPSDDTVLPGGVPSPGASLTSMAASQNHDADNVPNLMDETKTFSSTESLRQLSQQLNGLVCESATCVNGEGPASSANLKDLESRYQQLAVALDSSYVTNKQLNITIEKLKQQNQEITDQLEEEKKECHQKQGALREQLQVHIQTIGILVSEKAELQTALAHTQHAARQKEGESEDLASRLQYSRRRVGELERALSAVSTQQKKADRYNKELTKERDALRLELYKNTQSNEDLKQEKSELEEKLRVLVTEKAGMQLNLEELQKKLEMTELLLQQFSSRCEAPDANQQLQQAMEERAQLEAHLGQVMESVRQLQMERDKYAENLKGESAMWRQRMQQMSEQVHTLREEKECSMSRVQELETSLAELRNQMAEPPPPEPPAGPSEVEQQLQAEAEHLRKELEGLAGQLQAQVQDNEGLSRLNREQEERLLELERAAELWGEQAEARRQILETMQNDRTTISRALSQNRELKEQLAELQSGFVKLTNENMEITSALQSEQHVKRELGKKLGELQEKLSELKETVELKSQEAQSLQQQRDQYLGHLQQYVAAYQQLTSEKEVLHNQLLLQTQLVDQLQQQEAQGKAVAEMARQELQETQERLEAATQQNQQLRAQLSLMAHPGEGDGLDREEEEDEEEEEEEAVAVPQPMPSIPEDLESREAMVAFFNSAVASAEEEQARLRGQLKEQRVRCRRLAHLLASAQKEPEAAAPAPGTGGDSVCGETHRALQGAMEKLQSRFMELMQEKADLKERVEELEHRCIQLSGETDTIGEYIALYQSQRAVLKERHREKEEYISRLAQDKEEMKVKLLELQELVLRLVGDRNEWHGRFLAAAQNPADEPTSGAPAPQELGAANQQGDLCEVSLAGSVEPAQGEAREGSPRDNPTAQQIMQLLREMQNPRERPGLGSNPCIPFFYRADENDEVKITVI
B3: Islet cell autoantigen 1 (Homo sapiens), Q05084 (parent)
chain: MSGHKCSYPWDLQDRYAQDKSVVNKMQQKYWETKQAFIKATGKKEDEHVVASDADLDAKLELFHSIQRTCLDLSKAIVLYQKRICFLSQEENELGKFLRSQGFQDKTRAGKMMQATGKALCFSSQQRLALRNPLCRFHQEVETFRHRAISDTWLTVNRMEQCRTEYRGALLWMKDVSQELDPDLYKQMEKFRKVQTQVRLAKKNFDKLKMDVCQKVDLLGASRCNLLSHMLATYQTTLLHFWEKTSHTMAAIHESFKGYQPYEFTTLKSLQDPMKKLVEKEEKKKINQQESTDAAVQEPSQLISLEEENQRKESSSFKTEDGKSILSALDKGSTHTACSGPIDELLDMKSEEGACLGPVAGTPEPEGADKDDLLLLSEIFNASSLEEGEFSKEWAAVFGDGQVKEPVPTMALGEPDPKAQTGSGFLPSQLLDQNMKDLQASLQEPAKAASDLTAWFSLFADLDPLSNPDAVGKTDKEHELLNA
B4: Ribosome-recycling factor, mitochondrial (Homo sapiens), Q96E11 (parent)
chain: MALGLKCFRMVHPTFRNYLAASIRPVSEVTLKTVHERQHGHRQYMAYSAVPVRHFATKKAKAKGKGQSQTRVNINAALVEDIINLEEVNEEMKSVIEALKDNFNKTLNIRTSPGSLDKIAVVTADGKLALNQISQISMKSPQLILVNMASFPECTAAAIKAIRESGMNLNPEVEGTLIRVPIPQVTREHREMLVKLAKQNTNKAKDSLRKVRTNSMNKLKKSKDTVSEDTIRLIEKQISQMADDTVAELDRHLAVKTKELLG
partner: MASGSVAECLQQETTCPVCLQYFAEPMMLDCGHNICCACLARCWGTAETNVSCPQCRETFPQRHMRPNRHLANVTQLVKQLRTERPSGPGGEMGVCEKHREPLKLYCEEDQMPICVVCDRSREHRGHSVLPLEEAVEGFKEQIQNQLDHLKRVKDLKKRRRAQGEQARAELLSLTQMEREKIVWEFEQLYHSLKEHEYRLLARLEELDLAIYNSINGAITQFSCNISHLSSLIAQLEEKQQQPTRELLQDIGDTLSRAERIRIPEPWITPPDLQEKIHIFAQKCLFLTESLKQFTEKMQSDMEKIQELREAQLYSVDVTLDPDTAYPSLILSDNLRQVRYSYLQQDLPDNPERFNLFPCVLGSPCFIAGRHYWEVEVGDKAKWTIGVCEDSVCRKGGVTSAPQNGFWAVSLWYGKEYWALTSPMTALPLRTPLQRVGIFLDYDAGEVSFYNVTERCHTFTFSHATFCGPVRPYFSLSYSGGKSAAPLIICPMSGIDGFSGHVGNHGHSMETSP

Variants of: B1
Details: with dvl2_human DVL2, O14641

Variant | effect of a mutation on the interaction
R34H | disrupting interaction strength

Variants of: B1
Details: with dvl2_human DVL2, O14641
Remark: another data set of the same source

Variant | effect of a mutation on the interaction
Q631E | with no effect

Variants of: B2
Details: with goga2_human GOLGA2, Q08379

Variant | effect of a mutation on the interaction
W337R | disrupting interaction strength

Variants of: B3
Details: with rab2a_human RAB2A

Variant | effect of a mutation on the interaction
Q443R | disrupting interaction strength

Variants of: B3
Details: with rab2b_human RAB2B

Variant | effect of a mutation on the interaction
Q443R | disrupting interaction strength

Variants of: B4
Details: with tri27_human TRIM27, P14373

Variant | effect of a mutation on the interaction
G175E | disrupting interaction strength
